The supplement of paper PMC9233669
Variants at the floor of the assay were thinned out.

Legend:
[1] = test system: biotinyl-Val-oxazolone; assay: self-aminoacylation, catalytic enhancement (BVO) (fold over background); higher = more active; k-Seq, kA / k0A0; sequences stand for … in GGGAAUGGAUCCACAUCUACGAAUUC…UUCACUGCAGACUUGACGAAGCUG
Procedure, shortened: (§1)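 Working in 50 μL HEPES/NaCl/KCl/MgCl2/CaCl2 buffer with 5% acetonitrile at pH 6.9–7.0, mutagenized RNA pools (0.43 μM; 21-nt variable region) were reacted with 2–1250 μM of each biotinyl-aminoacyl-oxazolone for 90 minutes at room temperature. Streptavidin capture followed, with quantification by triplicate qPCR and Illumina sequencing. Catalytic enhancement is reported as median kA over the uncatalyzed rate, the low-activity peak of a bimodal Gaussian fit to the data.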

[2] = test system: biotinyl-Met-oxazolone; assay: self-aminoacylation, catalytic enhancement (BMO) (fold over background); higher = more active; k-Seq, kA / k0A0; sequences stand for … in GGGAAUGGAUCCACAUCUACGAAUUC…UUCACUGCAGACUUGACGAAGCUG
Procedure, shortened: as §1

[3] = test system: biotinyl-Ile-oxazolone; assay: self-aminoacylation, catalytic enhancement (BIO) (fold over background); higher = more active; k-Seq, kA / k0A0; sequences stand for … in GGGAAUGGAUCCACAUCUACGAAUUC…UUCACUGCAGACUUGACGAAGCUG
Procedure, shortened: as §1

[4] = test system: biotinyl-Leu-oxazolone; assay: self-aminoacylation, catalytic enhancement (BLO) (fold over background); higher = more active; k-Seq, kA / k0A0; sequences stand for … in GGGAAUGGAUCCACAUCUACGAAUUC…UUCACUGCAGACUUGACGAAGCUG
Procedure, shortened: as §1

[5] = test system: biotinyl-Phe-oxazolone; assay: self-aminoacylation, catalytic enhancement (BFO) (fold over background); higher = more active; k-Seq, kA / k0A0; sequences stand for … in GGGAAUGGAUCCACAUCUACGAAUUC…UUCACUGCAGACUUGACGAAGCUG
Procedure, shortened: as §1

[6] = test system: biotinyl-Trp-oxazolone; assay: self-aminoacylation, catalytic enhancement (BWO) (fold over background); higher = more active; k-Seq, kA / k0A0; sequences stand for … in GGGAAUGGAUCCACAUCUACGAAUUC…UUCACUGCAGACUUGACGAAGCUG
Procedure, shortened: as §1

Row | Sequence | self-aminoacylation [1] | self-aminoacylation [2] | self-aminoacylation [3] | self-aminoacylation [4] | self-aminoacylation [5] | self-aminoacylation [6]
1 | AUUUCCCGGGUCAUCGAGUGA [Fam2.1 aminoacylation ribozyme variant] | 3.93 | 5.43 | 3.37 | 6.51 | 45.6 | 6.24
2 | CCACAUUUCAAGGAAUCGGUC [Fam1B.1 aminoacylation ribozyme variant] | 1.31 | 1.34 | 1.52 | 1.49 | 1.67 | 1.28
3 | AUUACCCUGGUCAUAGACUGA [Fam2.1 aminoacylation ribozyme variant] | 0.991 | 0.586 | 0.874 | 0.739 | 0.776 | 0.537
4 | CCACACUUCAAGCAAUCGGCA [Fam1B.1 aminoacylation ribozyme variant] | 1.37 | 0.777 | 1.18 | 1.59 | 1.07 | 1.28
5 | AUUCACACAGGUCAUCGGGUG [Fam2.2 aminoacylation ribozyme variant] | 4.47 | 5.6 | 4.03 | 7.14 | 39.6 | 5.26
6 | AUUCACCUAGGACAUCGGGUC [Fam2.2 aminoacylation ribozyme variant] | 1.25 | 0.87 | 1.22 | 1.42 | 0.549 | 0.858
7 | AUUAACCUGGUCAUCGAGUUA [Fam2.1 aminoacylation ribozyme variant] | 1.02 | 1.34 | 1 | 1.06 | 0.827 | 0.836
8 | AUUACUCUGGUCAUGGAGUGA [Fam2.1 aminoacylation ribozyme variant] | 2.05 | 3.28 | 2.42 | 3.98 | 3.58 | 3.35
9 | AUUGCCCCGGUCAUCGAGUGA [Fam2.1 aminoacylation ribozyme variant] | 3.18 | 5.22 | 2.79 | 6.75 | 37.5 | 6.57
10 | CUACUUUACACAAUCGGUCUG [Fam1A.1 aminoacylation ribozyme variant] | 0.805 | 0.872 | 0.87 | 0.742 | 0.601 | 0.543
11 | AUUACCCGGAUCAUCGAGUGA [Fam2.1 aminoacylation ribozyme variant] | 4.04 | 7.04 | 3.43 | 7.92 | 38.4 | 7.26
12 | AUUCAUCUAGGCCAUCGGGUG [Fam2.2 aminoacylation ribozyme variant] | 2.84 | 3.38 | 2.39 | 5.22 | 19 | 3
13 | AUGCACCUAGGUCUUCGGGUG [Fam2.2 aminoacylation ribozyme variant] | 4.2 | 4.93 | 3.64 | 4.14 | 40 | 5.59
14 | CUCCUUCAAAUAAUCGGUCUG [Fam1A.1 aminoacylation ribozyme variant] | 0.835 | 1.08 | 1.13 | 1.23 | 13.4 | 11.2
15 | AUUCCCCAGGUCAUCGAGUGA [Fam2.1 aminoacylation ribozyme variant] | 3.75 | 4.86 | 3.12 | 4.83 | 21.1 | 6.65
16 | AUUUAACUAGGUCAUCGGGUG [Fam2.2 aminoacylation ribozyme variant] | 2.72 | 4.3 | 2.6 | 5.03 | 31.4 | 3.75
17 | CUACUCCAAAGAAUCGGUCUG [Fam1A.1 aminoacylation ribozyme variant] | 0.764 | 0.731 | 0.927 | 1.03 | 0.807 | 0.807
18 | AUAACCCUGAUCAUCGAGUGA [Fam2.1 aminoacylation ribozyme variant] | 3.27 | 6.16 | 2.79 | 6.46 | 20.9 | 8.47
19 | AUUGACCUAGGUCAUCCGGUG [Fam2.2 aminoacylation ribozyme variant] | 3.31 | 4.88 | 3.31 | 4.69 | 28.3 | 5.12
20 | CCACACUUUAAGCAAUGGGUC [Fam1B.1 aminoacylation ribozyme variant] | 0.613 | 0.686 | 0.696 | 0.618 | 0.774 | 0.612
21 | AUUCACCAAGGUAAUCGGGUG [Fam2.2 aminoacylation ribozyme variant] | 3.19 | 5.69 | 3.5 | 7.71 | 42.2 | 4.8
22 | CUACAUCAAACAAUCGGUCUA [Fam1A.1 aminoacylation ribozyme variant] | 0.922 | 0.802 | 0.669 | 0.58 | 1.61 | 0.755
23 | CUGCUUCAUACAAUCGGUCUG [Fam1A.1 aminoacylation ribozyme variant] | 0.602 | 0.69 | 0.671 | 0.628 | 0.639 | 0.32
24 | AUUCACCUAGCACAUCGGGUG [Fam2.2 aminoacylation ribozyme variant] | 2.12 | 2.38 | 2.09 | 3.31 | 11.3 | 2.03
25 | UUUAACCUAGGUCAUCGGGUG [Fam2.2 aminoacylation ribozyme variant] | 4.48 | 5.87 | 5.19 | 7.42 | 36.3 | 7.19
26 | ACUCACCCAGGUCAUCGGGUG [Fam2.2 aminoacylation ribozyme variant] | 4.51 | 4.37 | 4 | 5.25 | 26.2 | 4.81

Row | Sequence | self-aminoacylation [1] | self-aminoacylation [2] | self-aminoacylation [3] | self-aminoacylation [4] | self-aminoacylation [5] | self-aminoacylation [6]
27 | AACUUUCCUAAUAGUCGCAAG [Fam3.1 aminoacylation ribozyme variant] | 1.11 | 1.4 | 1.29 | 1.58 | 2.29 | 1.72
28 | AUUCAUCUAGAUCAUCGGGUG [Fam2.2 aminoacylation ribozyme variant] | 2.14 | 2.68 | 2.1 | 4.1 | 14.1 | 3.24
29 | AUUACCCUUGUCAUCGAGUGG [Fam2.1 aminoacylation ribozyme variant] | 1.54 | 2.03 | 1.25 | 1.85 | 1.98 | 1
30 | AUUCACCUAGGGCAUCUGGUG [Fam2.2 aminoacylation ribozyme variant] | 2.33 | 2.63 | 2.11 | 3.23 | 13 | 2.64
31 | CCACACUUCAAGCAAGCGGAC [Fam1B.1 aminoacylation ribozyme variant] | 1.15 | 1.16 | 0.959 | 0.794 | 0.42 | 0.604
32 | AUUCACCUUGGUGAUCGGGUG [Fam2.2 aminoacylation ribozyme variant] | 3.7 | 3.12 | 3.1 | 4.24 | 23.8 | 5.35
33 | CCACACUUCAUGCAAACGGUC [Fam1B.1 aminoacylation ribozyme variant] | 0.774 | 0.556 | 0.809 | 0.507 | 0.769 | 0.512
34 | CUAUUUCAAACAAUCGGUCGG [Fam1A.1 aminoacylation ribozyme variant] | 0.868 | 0.793 | 0.851 | 0.92 | 2.12 | 1.9
35 | AGGUUUGCUAAUAGUAGCAAG [Fam3.1 aminoacylation ribozyme variant] | 1.22 | 1.41 | 1.49 | 1.43 | 1.05 | 2.18
36 | AAGUUUGCUUAGAGUCGCAAG [Fam3.1 aminoacylation ribozyme variant] | 0.785 | 0.757 | 0.725 | 0.592 | 0.969 | 1
37 | CCACACUUCAAGCAAGUGGUC [Fam1B.1 aminoacylation ribozyme variant] | 0.611 | 0.43 | 0.441 | 0.449 | 0.777 | 0.536
38 | AUACACCUAAGUCAUCGGGUG [Fam2.2 aminoacylation ribozyme variant] | 2.91 | 4.44 | 3.47 | 5.83 | 28.8 | 4.14
39 | AUUUAGCUAGGUCAUCGGGUG [Fam2.2 aminoacylation ribozyme variant] | 4 | 4.72 | 3.83 | 5.39 | 50.1 | 6.01
40 | AUUACCCUGGGAAUCGAGUGA [Fam2.1 aminoacylation ribozyme variant] | 3.29 | 5.72 | 2.78 | 5.93 | 26.8 | 4.59
41 | AUUCACUUGGGUCAUCGGGUG [Fam2.2 aminoacylation ribozyme variant] | 4.44 | 6.84 | 4.61 | 7.5 | 43.9 | 6.5
42 | AAGUUUGCUAAUAGGCGCAGG [Fam3.1 aminoacylation ribozyme variant] | 0.965 | 0.67 | 0.831 | 0.907 | 0.997 | 1.18
43 | CUACUUCAAACAAUCCGUCUA [Fam1A.1 aminoacylation ribozyme variant] | 0.88 | 0.611 | 0.801 | 0.651 | 1.07 | 0.596
44 | AUUAGCCUGGUCAUCAAGUGA [Fam2.1 aminoacylation ribozyme variant] | 2.45 | 4.31 | 2.74 | 4.41 | 17.9 | 4.94
45 | CUUACCCUAGUCAUCGAGUGA [Fam2.1 aminoacylation ribozyme variant] | 3.24 | 4.55 | 2.99 | 5.38 | 5.25 | 6.07
46 | CCACACUUCAAGAAAUCUGUC [Fam1B.1 aminoacylation ribozyme variant] | 0.402 | 0.349 | 0.306 | 0.292 | 0.421 | 0.349
47 | AAAUUUGCUAAUAGUCACAAG [Fam3.1 aminoacylation ribozyme variant] | 1.49 | 1.62 | 1.58 | 1.26 | 2.81 | 1.71
48 | AAGUUUGCUGAUUGUCGCAAG [Fam3.1 aminoacylation ribozyme variant] | 1.02 | 1.09 | 0.948 | 1.11 | 1.02 | 1.37
49 | CUUACCCUUGUCAUCGAGUGA [Fam2.1 aminoacylation ribozyme variant] | 3.03 | 4.62 | 2.56 | 4.14 | 7.91 | 5.14
50 | AUUACCCUAGUCCUCGAGUGA [Fam2.1 aminoacylation ribozyme variant] | 2.34 | 4.15 | 2.2 | 3.93 | 15.9 | 4.08
51 | CCACACUUGAAGCAAUAGGUC [Fam1B.1 aminoacylation ribozyme variant] | 0.513 | 0.509 | 0.563 | 0.471 | 0.578 | 0.438
